Data from the DeepSol protein solubility set.

Assay: soluble on expression in E. coli; label from the status in PepcDB or PDB records

| Sequence | soluble on expression in E. coli |
| --- | --- |
| GPGSMVTTDINRDPVKRAMEDGTWRPGQKTAPQQQPQSLGVQCVAAPPQQAPCVPPLLVQYVPAPQAQYTPQPQLMQYVPQQPPQGYYQPRPPLPQPSYYPPGPPPPLQSGYYQQPPVPIQQVYYTQPPSQCYAPQPQYQY | not soluble |
| GPLGSHMSQAVQTNGTQPLSKTWELSLYELQRTPQEAITDGLEIVVSPRSLHSELMCPICLDMLKNTMTTKECLHRFCADCIITALRSGNKECPTCRKKLVSKRSLRPDPNFDALISKIYPSRDEYEAHQERVLARINKHNNQQALSHSIEEGLKIQAMNRLQRG | soluble |
| GPLGSPEFISLTSIPSLREQQHPLIRQLADCIEEVWHQHLDLSPYHLPAELGYVEGRLEGEKLTIENRCYQTPQFRKMHLELAKVGNMLDILHCVMFPRPEYDLPMFGCDLVGGRGQISAAIADLSPVHLDRTLPESYNSALTSLNTLNFSQPRELPEWGNIFSDFCIFVRPSSPEEEAMFLGRVREFLQVHCQGAIAASPVSAEQKQQILAGQHNYCSKQQQNDKTRRVLEKAFGVDWAENYMTTVLFDLPE | soluble |
| GPLGSPLIGEIGPETYSDYMSAGIPLAYIFAETAEERKELSDKLKPIAEAQRGVINFGTIDAKAFGAHAGNLNLKTDKFPAFAIQEVAKNQKFPFDQEKEITFEAIKAFVDDFVAGKIEPSIKSEPIPEKQEG | soluble |
| GPLGSSAVTITLKTLQQQTFKIRMEPDETVKVLKEKIEAEKGRDAFPVAGQKLIYAGKILSDDVPIRDYRIDEKNFVVVMVTKTKAGQGTSAPPEASPTAAPESSTSFPPAPTSGMSHPPPAAREDKSPSEESAPTTSPESVSGSVPSSGSSGREEDAASTLVTGSEYETMLTEIMSMGYERERVVAALRASYNNPHRAVEYLLTGIPGSPEPEHGSVQESQVSEQPATEAAGENPLEFLRDQPQFQNMRQVIQQNPALLPALLQQLGQENPQLLQQISRHQEQFIQMLNEPPGELADISDVEGEVGAIGEEAPQMNYIQVTPQEKEAIERLKALGFPESLVIQAYFACEKNENLAANFLLSQNFDDE | soluble |
| GPLGSSMEDHDDHLRRKFMEFPYVSPTRKQLMVDLMSTVENRLQSQLLPCNLPPDVRNFNNPNGSAEASLHIRSGDKSSPIDFVIGSWIHCKIPTGVSLNITSISGFLNSSTKAPNFVVELIQSSSKSLVLILDLPHRKDLVLNPDYLKEYYQDTALDSHRQSLLKLPEVNPYVSPSLFVRSAFSPTASMLKIDAEEEDKLEEILRDHVSPAAKEVLEVWLERCVKEEEEKIVVGEEERMELERRDKSFRRKSIEDDLDLQFPRMFGEEVSSRVVHAIKEAFGVL | soluble |
| GQDRFVYTCNECKHHVETRWHCTVCEDYDLCINCYNTKSHTHKMVKWGLGLD | soluble |
| GQEPENQTLETILNRKSVRKYKDRPVEKEKIDKLIRAGMAAPSSRDRRPWEFIIVTDRKALDTMAEGLPFARMLKETRQAIVVCGDTIKSSNAWFLDCSAASQNLLLAAESMGLGAVWTAVYPYPDRIEIVRKELRLPDHIMPLNVIPVGYPMQKETPKNKYNVQQIHHNGW | soluble |
| GRTVVVLGGGISGLAASYHLSRAPCPPKVVLVESSERLGGWIRSVRGPNGAIFELGPRGIRPAGALGARTLLLVSELGLDSEVLPVRGDHPAAQNRFLYVGGALHALPTGLRGLLRPSPPFSKPLFWAGLRELTKPRGKEPDETVHSFAQRRLGPEVASLAMDSLCRGVFAGNSRELSIRSCFPSLFQAEQTHRSILLGLLLGAGRTPQPDSALIRQALAERWSQWSLRGGLEMLPQALETHLTSRGVSVLRGQPVCGLSLQAEGRWKVSLRDSSLEADHVISAIPASVLSELLPAEAAPLARALSAITAVSVAVVNLQYQGAHLPVQGFGHLVPSSEDPGVLGIVYDSVAFPEQDGSPPGLRVTVMLGGSWLQTLEASGCVLSQELFQQRAQEAAATQLGLKEMPSHCLVHLHKNCIPQYTLGHWQKLESARQFLTAHRLPLTLAGASYEGVAVNDCIESGRQAAVSVLGTEPNS | soluble |
| GSDTPSNLMGKQQWKALVEEAIHSDWVKFRFQAAKNTWGKVFHNEVFSSIEKDGETYRANQYLFALEQLDATNIFDQYVIESMIKMLESGELNDPVAINIAQSSLSQPSFIRWTTNMLEKHSKVASKLHFEIPEECFIDHPHHTALLCNAIRQSGAEFGVDNYGRNFQSLEYIQEFRPNYVKLDYLFTHNLHDEKQKFTLTSISRTAHNLGITTIASRIETQIQLDFLTEHFVEVFQGFIVDKE | not soluble |
| GSELETAMETLINVFHAHSGKEGDKYKLSKKELKELLQTELSGFLDAQKDADAVDKVMKELDEDGDGEVDFQEYVVLVAALTVACNNFFWENS | soluble |
| GSFTEGWVRFSPGPNAAAYLTLENPGDLPLRLVGARTPVAERVELHETFMREVEGKKVMGMRPVPFLEVPPKGRVELKPGGYHFMLLGLKRPLKAGEEVELDLLFAGGKVLKVVLPVEAR | soluble |
| GSGATSAAGKPQETFLDFNESPYGPSAKARAAMQRAAALCGRYDYDAQDALVGLFAKQNGIPAECVHAYCGSRQPLQYAVAAFTGKERGLVIADPSYDSVVGAAQAQGAKVAAVPLDAEAAHDIERMLAAAQRDAGLIYICNPNNPTGTLTPHERIVRAIERKPERSVVLVDEAYIHFSDAPSVVGLAVQRQDVLVLRTFSKLYGMAGARLGLAIGHPQLLARLERFGGHNVVPSPTAHAGLESLRDDDLVPRRKQQNAEVRERTIAWLRQQGFRCTASQSNCFMVDMRRPAELVIAELEKQRVHVGRPWASWPNWVRVTVGSEEEMQAFR | not soluble |
| GSGEAKPQAPELRIFPKKMDAELGQKVDLVCEVLGSVSQGCSWLFQNSSSKLPQPTFVVYMASSHNKITWDEKLNSSKLFSAMRDTNNKYVLTLNKFSKENEGYYFCSVISNSVMYFSSVVPVLQKVNSTTTKPVLRTPSPVHPTGTSQPQRPEDCRPRGSVKGTG | soluble |
| GSGMRFYVKDHRNKAMINLHIQKDNPKIVHAFDMEDLGDKAVYCRCWRSKKFPFCDGAHTKHNEETGDNVGPLIIKKKET | soluble |
| GSGNRTRKRRMINASVWMPPMENEEKNRKNHQSITSSQHSLLEASYDGYIKRQRNELQHYSLYPNPQGYGNGNDFLGDFNHTNLQIPTEPEPESPIKLHTEAAGSYAITEPITRESVNIIDPRHNRTVLHWIASNSSAEKSEDLIVHEAKECIAAGADVNAMDCDENTPLMLAVLARRRRLVAYLMKAGADPTIYNKSERSALHQAAANRDFGMMVYMLNSTKLKGDIEELDRNGMTALMIVAHNEGRDQVASAKLLVEKGAKVDYDGAARKDSEKYKGRTALHYAAQVSNMPIVKYLVGEKGSNKDKQDEDGKTPIMLAAQEGRIEVVMYLIQQGASVEAVDATDHTARQLAQANNHHNIVDIFDRCRPERE | soluble |
| GSHADLLRKNAEVTKQVSMARQAQVDLEREKKELEDSLERISDQGQRKTQEQLEVLESLKQELATSQRELQVLQGSLETSAQSEANWAAEFAELEKERDSLVSGAAH | soluble |
| GSHMAQQNILSVHILNQQTGKPAADVTVTLEKKADNGWLQLNTAKTDKDGRIKALWPEQTATTGDYRVVFKTGDYFKKQNLESFFPEIPVEFHINKVNEHYHVPLLLSQYGYSTYRGS | soluble |
| GSHMASMTGGQQMGRGSMVKVLTACGNGMGSSMVIKMKVENALRQLGVSDIESASCSVGEAKGLASNYDIVVASNHLIHELDGRTNGKLIGLDNLMDDNEIKTKLEEALK | soluble |
| GSHMASREQTMENILKAAKKKFGERGYEGTSIQEIAKEAKVNVAMASYYFNGKENLYYEVFKKYGLANELPNFLEKNQFNPINALREYLTVFTTHIKENPEIGTLAYEEIIKESARLEKIKPYFIGSFEQLKEILQEGEKQGVFHFFSINHTIHWITSIVLFPKFKKFIDGLVPRGSGGLVPRGSGDLVSRIISALTDKPNI | soluble |
| GSHMATPWSGYLDDVSAKFDTGVDNLQTQVTEALDKLAAKPSDPALLAAYQSKLSEYNLYRNAQSNTAKAFKDIDAAIIQNFR | soluble |
| GSHMIDVPIPRFAVGIVIGRNGEMIKKIQNDAGVRIQFKPDDGTTPERIAQITGPPDRAQHAAEIITDLLRSVQAGNPGGPGPGGRGRGRGQGNWNMGPPGGLQEFNFIVPTGKTGLIIGKGGETIKSISQQSGARIELQRNPPPNADPNMKLFTIRGTPQQIDYARQLIEEKI | soluble |
| GSHMKDYSLEIDAVMKAAQINDTNNFVQALMRWHFSKETGSPFWLGMREQLNFDPIKDVKTINDLRQFSDISHCLRQEPVANLVPQGLPADSHPQVYESGGTTGAPKYVVAYDAWIEALISWRMSGYQHRPGRPSGNTLAAIPTGPHIVGAINKERALRLGGMFFSIDIDPRWVKRSLSEGDTATVRKYTHHLVDQVQNTLMNQDIRFLVTTPPVLRELLKRPEVVLQMKQSLAQITLGGTELNLDEIKFIASEILPDCEFSASYGSTSALGVSRSLLITSESQQVIYDSFSPFITYDVVDSITAQTVEYGERGNVIVTHLSPWAFYPRVAERDTAIRLPGVSGFAGDRLADIEPLKISEGRKVIEGVY | soluble |
| GSHMKFTRVCDRRDVPEGEALKVESGGTSVAIFNVDGELFATQDRCTHGDWSLSDGGYLEGDVVECSLHMGKFCVRTGKVKSPPPCEALKIFPIRIEDNDVLVDFEAGYLAP | soluble |
| GSHMLFAEFAEFCERLEKISSTLELTARIAAFLQKIEDERDLYDVVLFITGKVYPPWDERELGVGIGLLYEALENVSGVKRSEIESMIREYGDLGLVAEQLIKKKKMTTLAFEELTVRKVRETFDEIASLTGEGSMKRKIMLLTGLYGLATPLEARYLTRLILNEMRLGVGEGIMRDAIARAFRADPETVERAYMITNDLGRVAVVAKKEGEEGLRKMKIEIHIPVRMMLAQVAESLESAVREMRTAAVEWKFDGSRVQVHWDGSRVTIYSRRLENVTNALPDIVEEIKKSVKPGVILDGEVIAVKEGKPMPFQHVLRRFRRKHDVAKMVEKIPLEAHFFDILYHDGECIDLPLRERRKLLESAVNESEKIKLAKQIVTDSVDEVRKMYDEAISAGHEGVMIKLPSSPYIPGKRGKNWLKVKAIMETLDLVVVGGEWGEGKRSHWLSSFELACLDPVTGKLLKVGRVATGFTEEDLEELTEMFRPLIVSQQGKKVEFIPKYVFEVAYQEIQKSPKYESGYALRFPRFVRLRDDKDVDEADTIERVENLYKLQFEVKRQ | soluble |
| GSHMRKIQRYVRKDGKCNVHHGNVREKRAETLVFSTHAVISMRDGKLCLMFRVGDLRNSHIVEASIRAKLIKSKQTSEGEFIPLNQTDINVGYYTGDDRLFLVSPLIISHEINQQSPFWEISKAQLPKEELEIVVILEGMVEATGMTCQARSSYITSEILWGYRFTPVLTLEDGFYEVDYNSFHETYETSTPSLSAKELAELANRAEV | soluble |
| GSHMTAEADTSSELAKKSKEVFRKEMSQFIVQCLNPYRKPDCKVGRITTTEDFKHLARKLTHGVMNKELKYCKNPEDLECNENVKHKTKEYIKKYMQKFGAVYKPKEDTELE | soluble |
| GSHMTNDIYFMTLAIEEAKKAAQLGEVPIGAIITKDDEVIARAHNLRETLQQPTAHAEHIAIERAAKVLGSWRLEGCTLYVTLEPCVMCAGTIVMSRIPRVVYGADDPKGGCSGSLMNLLQQSNFNHRAIVDKGVLKEACSTLLTTFFKNLRANKKSTN | soluble |
